Results reported in patent publication US20220227846A1 (TEMPLE UNIVERSITY OF THE COMMONWEALTH SYSTEM OF HIGHER …, published 2022).

B1: ALZ.3H3 (antibody, V domains shown)
VH: QVQLVESGGGVVQPGRSLRLSCAASGFSFSTYGMHWVRQAPGKGLEWVAVISYDGSRKYYADTGKGRFTISRDNSKNTLYLEMNGLRAEDTAVYHCAKDLRRELGFGNRDYHYYGMDAWGQGTTVTVSS
VL: LTQPRSVSGSPGQSVTMSCTGTNSDIGGYNYVSWYQQHPGKAPKLMIYDVYKRPSGVPDRFSGSKSGNTASLTISGLQAEDEADYYCCSYAGTNNLIFGGGTKLTVLG
B2: ALZ.4A6 (antibody, V domains shown)
VH: QVQLVQSGAEVKKPGASMRVSCKASGYTYTAYYIHWMRQAPGQGLEWMGWINPHIGSTNYAEKFRGRVTLTRDTSIKTAYMDLDRLTSDDTAIYYCARVRAPRSISGTLNSYGMDVWGQGTTVAVSS
VL: DIVMTQSPSSLSASVGDRVVITCRASLRIGTFLNWYQQTQGRAPKLLVSSASTLQSGVPSRFSGSGSGTDFTLTINSLQPEDFATYYCQQSYSTTWTFGQGTKVELK
notes: Human mAb cloned from hybridomas made from B cells of a patient with Alzheimer's Disease
B3: ALZ.4G1 (antibody, V domains shown)
VH: EEHLVESGGALVQPGGSLRLSCEASGFTFRSYWMTWVRQAPGKGLEWLANIKQDGSDYYYVDSVKGRFTISRDNAKNTLYLQMNNLRADDTAVYFCARDARYRDTTWPQYYFYYFMDVWGKGTTVTVSS
VL: DIQLTQSPSSLSASIGDRVTVTCRASQSISNYLNWYQQKPGKAPKLLIYAASNLHTGVPSRFSGSGSGTHFTLTISSLQPEDFATYYCQLSYNNPRTFGPGTTVDIR
notes: as for B2

How the values were obtained:
Test in all cases: SPR, calculated KD (Qdat software)
[1] = target: T1, N-terminal biotinylated Aβ42 monomers (UniProt P05067 672-713, N-terminal biotin)
T1 construct: domain: Aβ42; also called NTB mono
Method: (§1) MAb binding to Aβ42 conformers was measured by surface plasma resonance (SPR) (Table 1). Calculated affinity constants (KD) were obtained using Qdat software. […] The 3H3 binding data is qualitatively most similar to the 4G1 and 6E10 mAbs. 4A6 and 2C10 preferentially bind Aβ fibrils.

[2] = target: T2, Aβ42 oligomers (ADDLs/globulomers) (UniProt P05067 672-713)
T2 construct: domain: Aβ42; Oligomeric conformer of Aβ42; also called amyloid beta derived diffusible ligands
Method: as §1

Aβ42 fibrils = target: T3, Aβ42 fibrils (UniProt P05067 672-713)
T3 construct: domain: Aβ42; Fibrillar conformer of Aβ42; also called Aβ fibrils
Method: as §1

[3] = target: T4, C-terminal biotinylated Aβ42 ADDLs/globulomers (UniProt P05067 672-713, C-terminal biotin)
T4 construct: domain: Aβ42; also called CTB oligo
Method: as §1

[4] = target: T5, C-terminal biotinylated Aβ42 monomers (UniProt P05067 672-713, C-terminal biotin)
T5 construct: domain: Aβ42; also called CTB mono
Method: as §1

T2 sequence (P05067 672-713 limits assumed): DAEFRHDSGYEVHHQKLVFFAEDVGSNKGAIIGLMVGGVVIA
T3 sequence (P05067 672-713 limits assumed): as above
T5 sequence (P05067 672-713 limits assumed): as above
T4 sequence (P05067 672-713 limits assumed): as above
T1 sequence (P05067 672-713 limits assumed): as above

Binder | Kd [1] | Kd [2] | Kd (Aβ42 fibrils) | Kd [3] | Kd [4]
B1 | 240 nM | 40 nM | 2.1 nM | 35 nM | 3.4 nM
B2 | – | 1300 nM | 11 nM | – | 16 nM
B3 | 1700 nM | 8.8 nM | 14 nM | 11.4 nM | 15 nM
